T1: human CEACAM5 (R&D Systems #4128-CM-050) (human, UniProt P06731 35-685)
T1 construct: Bought protein; also called hCEACAM-5; Human CEACAM5-His
T1 sequence (looked up): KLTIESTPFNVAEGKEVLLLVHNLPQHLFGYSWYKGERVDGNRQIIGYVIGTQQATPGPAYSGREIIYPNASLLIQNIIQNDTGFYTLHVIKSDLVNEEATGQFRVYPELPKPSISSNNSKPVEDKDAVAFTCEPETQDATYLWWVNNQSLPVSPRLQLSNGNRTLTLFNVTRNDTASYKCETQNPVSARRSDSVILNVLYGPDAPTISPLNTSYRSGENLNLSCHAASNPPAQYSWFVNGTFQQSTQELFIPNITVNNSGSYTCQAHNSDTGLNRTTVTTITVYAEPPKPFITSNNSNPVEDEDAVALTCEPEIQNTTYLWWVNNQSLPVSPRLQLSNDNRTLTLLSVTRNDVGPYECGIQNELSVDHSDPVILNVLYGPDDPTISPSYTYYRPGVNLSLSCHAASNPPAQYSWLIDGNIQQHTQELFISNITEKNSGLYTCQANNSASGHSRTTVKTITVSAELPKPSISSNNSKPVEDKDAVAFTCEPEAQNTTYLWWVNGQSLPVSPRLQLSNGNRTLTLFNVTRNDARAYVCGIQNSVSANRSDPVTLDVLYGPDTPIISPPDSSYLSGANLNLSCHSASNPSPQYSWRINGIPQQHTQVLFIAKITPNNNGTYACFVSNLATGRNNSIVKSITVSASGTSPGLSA


What was measured:
[1] = biological target: T1, human CEACAM5 (R&D Systems #4128-CM-050); test: dual target ELISA: coated hCEACAM-5, detection with biotinylated hCD40-muIg
Method: 96-well plates were coated with 0.5 μg/mL antigen, hCEACAM-1 (2244-CM-050, R&D Systems), hCEACAM-5 (4128-CM-050, R&D Systems), hCEACAM-6 (3934-CM-050, R&D Systems) or CEACAM-8 (9639-CM-050, R&D Systems) in PBS over night at 4° C. After washing in PBS/0.05% Tween 20 (PBST), the plates were blocked with PBST, 2% BSA for at least 30 minutes at room temperature before a second round of washing. RUBY bsAbs, diluted in PBST, 0.5% BSA, were then added and allowed to bind for at least 1 hour at room temperature. […] Finally, a final round of washing was performed and bound complexes detected using SuperSignal Pico Luminescent as substrate and luminescence signals were measured using Fluostar Optima.

[2] = biological target: T2, biotinylated human CD40-mouse Fc (Ancell #504-030) (human, UniProt P25942 21-193, biotinylated); test: Octet (BLI), bsAb in solution, captured CD40mFc-biotin, 1:1 fit
T2 construct: Bought protein; also called biotinylated hCD40-muIg; CD40mFc-biotin; not shown: mouse Fc (muIg) part
T2 sequence (P25942 21-193 limits assumed): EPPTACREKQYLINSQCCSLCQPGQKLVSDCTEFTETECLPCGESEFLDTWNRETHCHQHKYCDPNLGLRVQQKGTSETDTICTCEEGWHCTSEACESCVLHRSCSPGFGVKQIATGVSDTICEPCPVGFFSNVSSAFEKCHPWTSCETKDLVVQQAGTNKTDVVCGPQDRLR
Method: Kinetic measurements were performed in the Octet RED96 platform using several different setups. […] Monomeric human CD40-His-Avi tag (Acro Biosystems #CD0-H5228), monomeric Human CEACAM5-His (R&D Systems #4128-CM-050) or monomeric Cynomolgus CEACAM5-His (Sino Biological #90891-C08H) were ½ serially diluted in 1× kinetic buffer (Sartorius) starting at 500 nM or 100 nM. Bispecific antibodies were 2 serially diluted starting at 50 nM, 25 nM or 10 nM or 1/1.5 serially diluted starting at 15 nM or 5 nM. Binding kinetics was studied in 1× kinetic buffer where association was allowed for 100 sec, 300 sec or 600 sec followed by dissociation for 100 sec, 300 sec or 3600 sec. Sensor tips were regenerated with 10 mM Glycine pH 1.7. Data generated were referenced by subtracting blank or parallel buffer blank, the baseline was aligned to the y-axis, inter-step correction by alignment against dissociation was performed and the data was smoothed by Savitzky-Golay filter in the data analysis software (v9.0.0.14). The processed data was fitted using a 1:1 Langmuir binding model with R² or X² as a measurement of fitting accuracy.
TABLE 12 Summary of kinetic profiles measured in Octet. Bispecific antibodies in solution (25-0.8 nM, 10-2 or 5-0.7 nM.) interacting with captured CD40mFc-biotin. Association was measured for 300 sec or 600 sec and dissociation was measured for 300 sec or 3600 sec

binding result [1]	Kd [2]	koff [2]	kon [2]	Binder
binds				Multi40 (bispecific antibody, CEACAM5xCD40, Optimized RUBY format; copies: 2 + 2 + 2) heavy 1: not shown light: DIQMTQSPSSLSASVGDRVTITCRASQSISSYLNWYQEKPGKAPKLLIYAASSLQSGVPSRFSGSGSGTDFTLTISSLQPEDFATYYCQQSSHGPLLTFGQGTKLEIKRTVAAPSVFIFPPSDEQLKSGTASVVCYLNNFYPREAKVQWKVDNALQSGNSQESVTEQDSKDSTYSLWSTLTLSKADYEKHKVYACEVTHQGLSSPVTKSFNRGEC heavy 2: EVQLLESGGGLVQPGGSLRLSCAASGFTFSTYGMHWVREAPGKGLEWLSYISGGSSYIFYADSVKGRFTISRDNSKNTLYLQMNSLRAEDTAVYYCARILRGGSGMDLWGQGTLVTVSSASTKGPSVFPLAPSSKSTSGGTAALGCLVKDYFPEPVTVSWNSGALTSGVHTFPAVLQSSGLYSLTSVVEVPSSSLGTQTYICNVNHKPSNTKVDKKVEPKSC
	76 nM	0.00062 s⁻¹	8300 M⁻¹ s⁻¹	AC_05293 (bispecific antibody, V domains shown) VH 1: EVQLLESGGGLVQPGGSLRLSCAASGFTFSSYAMSWVRQAPGKGLEWVSGIGSYGGGTYYADSVKGRFTISRDNSKNTLYLQMNSLRAEDTAVYYCARYVNFGMDYWGQGTLVTVSS VL 1: DIQMTQSPSSLSASVGDRVTITCRASQSISSYLNWYQQKPGKAPKLLIYAASSLQSGVPSRFSGSGSGTDFTLTISSLQPEDFATYYCQQYGRNPPTFGQGTKLEIK VL 2: ELVMTQSPSSLTVTAGEKVTMSCKSSQSLLNSGNQKNYLTWYQQKPGQPPKLLIYWASTRESGVPDRFTGSGSGTDFTLTISSVQAEDLAVYYCQNDYSYPLTFGAGTKLEIK VH 2: EVQLLEQSGAELVRPGTSVKISCKASGYAFTNYWLGWVKQRPGHGLEWIGDIFPGSGNIHYNEKFKGKATLTADKSSSTAYMQLSSLTFEDSAVYFCARLRNWDEPMDYWGQGTTVTVSS
	8.5 nM	0.0046 s⁻¹	540000 M⁻¹ s⁻¹	AC_05300 (bispecific antibody, V domains shown) VH 1: EVQLLEQSGAELVRPGTSVKISCKASGYAFTNYWLGWVKQRPGHGLEWIGDIFPGSGNIHYNEKFKGKATLTADKSSSTAYMQLSSLTFEDSAVYFCARLRNWDEPMDYWGQGTTVTVSS VL 1: ELVMTQSPSSLTVTAGEKVTMSCKSSQSLLNSGNQKNYLTWYQQKPGQPPKLLIYWASTRESGVPDRFTGSGSGTDFTLTISSVQAEDLAVYYCQNDYSYPLTFGAGTKLEIK VL 2: DIQMTQSPSSLSASVGDRVTITCRASQSISSYLNWYQQKPGKAPKLLIYAASSLQSGVPSRFSGSGSGTDFTLTISSLQPEDFATYYCQQYGRNPPTFGQGTKLEIK VH 2: EVQLLESGGGLVQPGGSLRLSCAASGFTFSSYAMSWVRQAPGKGLEWVSGIGSYGGGTYYADSVKGRFTISRDNSKNTLYLQMNSLRAEDTAVYYCARYVNFGMDYWGQGTLVTVSS
